Results: patent publication US20150110776A1 (PROTHENA BIOSCIENCES, published 2015)

T1: rat IAPP (rat, UniProt P12969 38-74)
T1 construct: Used as the soluble analyte in the Biacore assay in place of human IAPP; also called rat islet amyloid polypeptide
T1 peptide (looked up): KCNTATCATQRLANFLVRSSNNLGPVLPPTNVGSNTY

T2: hIAPP peptide LSSTNVGSNTY, amino acids 27-37 of IAPP (human)
T2 peptide: LSSTNVGSNTY

T3: human islet-amyloid polypeptide (IAPP) (human)
T3 construct: also called hIAPP; human IAPP
T3 peptide: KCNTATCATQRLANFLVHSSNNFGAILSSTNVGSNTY


How the values were obtained:
rat IAPP = molecular target: T1, rat IAPP; assay: SPR (Biacore), antibody captured on anti-human CM5 chip, rat IAPP as analyte, global 1:1 fit
Protocol: The affinity of various combinations of 3H6 humanized heavy chains and humanized light chain proteins for IAPP was analyzed on a Biacore instrument. Biacore analysis was performed by preparing an anti-human CM5 chip following the protocol provided in the kit. The 3H6 antibody was captured such that the maximum binding of rat IAPP would not exceed 20-30 RU. […] Data was blank subtracted to both an irrelevant sensor not containing 3H6 and 0 IAPP concentration to account for the dissociation of 3H6 from the anti-human capture. Data was then analyzed using a global 1:1 fit.

[1] = molecular target: T2, hIAPP peptide LSSTNVGSNTY, amino acids …; assay: hybridoma epitope mapping against shorter peptides
Protocol: (§1) LA28-3H6 was originally a mouse hybridoma, producing an anti-hIAPP antibody of isotype Gamma 2a k, which resulted from a fusion of spleen cells from a mouse injected with hIAPP coupled to KLH via gluteraldehyde. The mouse was immunized with 25 μg of the conjugate in RIBI adjuvant on days 0, 7, 14, 21, 39, 46, 53, 60, 77, 84, and 91. […] On day 97 the mouse was injected with the IAPP/KLH conjugate both intraperitoneally and intravenously. Three days later the spleen was removed and a cell suspension was generated and frozen. Four months later the suspension was thawed and fused to SP2/0 cells. The fusion was screened against hIAPP, then epitope mapped against shorter peptides and found to react with […] (SEQ ID NO: 4), which corresponds to amino acids 27-37 of IAPP.

[2] = molecular target: T3, human islet-amyloid polypeptide (IAPP); assay: hybridoma screen against hIAPP
Protocol: as §1

| Kd (rat IAPP) [nM] | koff (rat IAPP) [s⁻¹] | kon (rat IAPP) [M⁻¹ s⁻¹] | binding result [1] | binding result [2] | Binder |
| --- | --- | --- | --- | --- | --- |
| 18.6 | 0.00152 | 81800 | binds | binds | murine monoclonal antibody 3H6 (antibody, V domains shown, also called m3H6; mouse 3H6) VH: EVKLEESGGGLVQPGGSMKLSCVASGFTFSNYWMYWVRQSPEKGLEWVAEIRLKSDNYATHYAESVKGRFTISRDDSKSSVYLQMNSLRAEDTGIYYCTIFDYWGQGTTVTVSS VL: not shown |
| 13.7 | 0.00147 | 107000 | – | – | chimeric 3H6 antibody (antibody, V domains shown, also called ch3H6) VH: EVKLEESGGGLVQPGGSMKLSCVASGFTFSNYWMYWVRQSPEKGLEWVAEIRLKSDNYATHYAESVKGRFTISRDDSKSSVYLQMNSLRAEDTGIYYCTIFDYWGQGTTVTVSS VL: not shown |
| 34.5 | 0.00294 | 85200 | – | – | humanized 3H6 antibody version H2L1 (antibody, V domains shown, also called h3H6-H2L1) VH: EVQLVESGGGLVQPGGSLKLSCAASGFTFSNYWMYWVRQAPGKGLEWVGEIRLKSDNYATHYAESVKGRFTISRDDSKNTAYLQMDSLKTEDTAVYYCTTFDYWGQGTLVTVSS VL: DVVMTQSPLSLPVTLGQPASISCKSSQSLLDSDGKTYLNWLQQRPGQSPKRLIYLVSKLDSGVPDRFSGSGSGTDFTLKISRVEAEDVGVHYCWQGRHFPYTFGQGTKLEIK |
| 85.4 | 0.00646 | 75700 | – | – | humanized 3H6 antibody version H2L2 (antibody, V domains shown, also called h3H6-H2L2) VH: EVQLVESGGGLVQPGGSLKLSCAASGFTFSNYWMYWVRQAPGKGLEWVGEIRLKSDNYATHYAESVKGRFTISRDDSKNTAYLQMDSLKTEDTAVYYCTTFDYWGQGTLVTVSS VL: DVVMTQSPLSLPVTLGQPASISCKSSQSLLDSDGKTYLNWLQQRPGQSPKRLIYLVSKLDSGVPDRFSGSGSGTDFTLKISRVEAEDVGVYYCWQGRHFPYTFGQGTKLEIK |
| 20.4 | 0.00231 | 113000 | – | – | humanized 3H6 antibody version H1L1 (antibody, V domains shown, it was captured on an anti-human chip; also called h3H6-H1L1) VH: EVQLVESGGGLVQPGGSLKLSCAASGFTFSNYWMYWVRQAPGKGLEWVGEIRLKSDNYATHYAESVKGRFTISRDDSKNTVYLQMDSLKTEDTAVYYCTIFDYWGQGTLVTVSS VL: DVVMTQSPLSLPVTLGQPASISCKSSQSLLDSDGKTYLNWLQQRPGQSPKRLIYLVSKLDSGVPDRFSGSGSGTDFTLKISRVEAEDVGVHYCWQGRHFPYTFGQGTKLEIK |
| 33.2 | 0.00625 | 188000 | – | – | humanized 3H6 antibody version H3L2 (antibody, V domains shown, also called h3H6-H3L2) VH: EVQLVESGGGLVQPGGSLKLSCAASGFTFSNYWMYWVRQAPGKGLEWVGEIRLKSDNYATHYAESVKGRFTISRDDSKNTAYLQMDSLKTEDTAVYYCTIFDYWGQGTLVTVSS VL: DVVMTQSPLSLPVTLGQPASISCKSSQSLLDSDGKTYLNWLQQRPGQSPKRLIYLVSKLDSGVPDRFSGSGSGTDFTLKISRVEAEDVGVYYCWQGRHFPYTFGQGTKLEIK |
